# What was measured:
# [1] = target: T1, chick TRKA receptor (Gallus gallus, UniProt Q91009); test: Antibody/ligand recognition of chick TRKA receptor; type: binding, chicken; settings: immunoblot or immunoprecipitation; receptor activation
# T1 construct: expressed in transfected cells
# Excerpt: (§1) The antibody preparation used in the experiments, called CTA, was a rabbit antibody raised against the entire extracellular domain of chicken TRKA expressed in COS cells. […] A useful control for these experiments was to activate the endogenous rat TRKA receptor without influencing the introduced chimeric receptor.
# (§2) While the chick receptor became phosphorylated by both treatments, activation of the rat receptor was detected only after NGF addition. […] The effects of the CTA antibody preparation were therefore not attributable to activation of endogenous TRKA receptors.
# [2] = target: T2, rat TRKA receptor (Rattus norvegicus, UniProt P35739); test: Antibody/ligand recognition of rat TRKA receptor; type: binding
# T2 construct: endogenous in cells
# T2 sequence (P35739 33-799): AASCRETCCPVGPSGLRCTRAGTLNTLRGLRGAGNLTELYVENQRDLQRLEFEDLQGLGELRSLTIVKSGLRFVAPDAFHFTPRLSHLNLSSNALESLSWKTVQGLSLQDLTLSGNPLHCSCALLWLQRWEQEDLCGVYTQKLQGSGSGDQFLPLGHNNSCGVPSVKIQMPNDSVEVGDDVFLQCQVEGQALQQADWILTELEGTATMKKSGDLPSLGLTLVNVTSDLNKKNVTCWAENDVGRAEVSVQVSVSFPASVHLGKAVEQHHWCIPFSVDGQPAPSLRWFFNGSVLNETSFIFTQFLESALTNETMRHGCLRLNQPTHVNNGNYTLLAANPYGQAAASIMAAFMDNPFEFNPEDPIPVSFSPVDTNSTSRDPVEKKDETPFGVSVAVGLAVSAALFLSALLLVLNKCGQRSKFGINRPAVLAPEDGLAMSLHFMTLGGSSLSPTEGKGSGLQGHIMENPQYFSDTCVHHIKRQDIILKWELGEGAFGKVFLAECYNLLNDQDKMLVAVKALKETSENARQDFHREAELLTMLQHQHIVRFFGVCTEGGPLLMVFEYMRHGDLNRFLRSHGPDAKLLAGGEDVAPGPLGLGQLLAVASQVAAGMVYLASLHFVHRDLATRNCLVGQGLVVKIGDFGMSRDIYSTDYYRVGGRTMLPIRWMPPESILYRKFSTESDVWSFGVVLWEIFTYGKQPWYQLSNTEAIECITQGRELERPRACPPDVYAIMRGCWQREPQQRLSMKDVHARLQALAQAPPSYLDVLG
# Excerpt: as §1, §2
# T1 sequence (Q91009 15-778): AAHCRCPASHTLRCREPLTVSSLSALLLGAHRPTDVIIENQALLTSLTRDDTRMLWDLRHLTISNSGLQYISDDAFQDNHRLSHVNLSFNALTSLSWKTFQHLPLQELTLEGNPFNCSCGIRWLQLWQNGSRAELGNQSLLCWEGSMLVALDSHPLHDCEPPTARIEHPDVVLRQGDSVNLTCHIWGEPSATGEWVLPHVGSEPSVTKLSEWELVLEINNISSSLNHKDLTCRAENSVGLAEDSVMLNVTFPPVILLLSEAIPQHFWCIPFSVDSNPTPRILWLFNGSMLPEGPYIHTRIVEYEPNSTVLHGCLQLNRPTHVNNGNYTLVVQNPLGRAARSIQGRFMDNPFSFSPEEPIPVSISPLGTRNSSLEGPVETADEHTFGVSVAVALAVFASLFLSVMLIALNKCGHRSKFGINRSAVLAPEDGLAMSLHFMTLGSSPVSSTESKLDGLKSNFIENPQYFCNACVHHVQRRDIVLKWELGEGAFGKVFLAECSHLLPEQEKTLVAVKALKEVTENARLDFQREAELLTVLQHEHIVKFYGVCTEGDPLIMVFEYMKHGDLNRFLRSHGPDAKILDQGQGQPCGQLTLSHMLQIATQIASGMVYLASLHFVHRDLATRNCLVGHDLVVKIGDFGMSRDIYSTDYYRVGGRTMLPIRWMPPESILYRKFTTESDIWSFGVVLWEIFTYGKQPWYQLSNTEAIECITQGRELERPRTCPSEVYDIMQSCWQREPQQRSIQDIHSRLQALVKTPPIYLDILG
substance,measurement,setting,value
"NGF: nerve growth factor, ligand which binds to the extracellular region of the TRK receptor",recognition of chick TRKA receptor,[1],binds both receptors
same,recognition of rat TRKA receptor,[2],binds both receptors
